Laboratory results reported in article PMC7538161, “Breakage of the oligomeric CaMKII hub by the regulatory segment of the kinase” (eLife, 2020).
“And” between values parts separate entries of the source, which are not always exact repeats. Equal entries are not always repeated. Non-standard residues stand in square brackets, D forms with d. No end group written: not given here. pT = C[C@@H](OP(=O)(O)O)[C@H](N)C(=O)O

B1: Peptide B^phos (peptide)
peptide: AIL[pT]TMLATRNFSGGKSGGNKK
modifications: also: phosphothreonine at Thr 305
notes: also called phosphorylated Peptide B; source: bought: Elim Biopharm (lyophilized powder)
B2: Peptide H, CaMKIINTide (peptide)
peptide: KRPPKLGQIGRSKRVVIEDDRIDDVLK
notes: source: bought: Elim Biopharm (lyophilized powder)
B3: human CaMKII-α hub domain (domain or fragment, UniProt Q9UQM7 345-475, looked up)
chain: VRKQEIIKVTEQLIEAISNGDFESYTKMCDPGMTAFEPEALGNLVEGLDFHRFYFENLWSRNSKPVHTTILNPHIHLMGDESACIAYIRITQYLDAGGIPRTAQSEETRVWHRRDGKWQIVHFHRSGAPSV
notes: Ca2+/calmodulin-dependent protein kinase II alpha (CaMKII-α), human, hub domain, residues 345-475 of Uniprot Q9UQM7; Forms dodecameric and tetradecameric assemblies; also called the hub; hub assembly; source: E. coli BL21, purified (Ni-NTA, PreScission cleavage, Ni-NTA flow-through, Superose 6 gel filtration); not shown: His6, N-terminal, cleaved; copies: 12 or 14
B4: Peptide A^phos (peptide)
peptide: LKKFNARRKLKGAIL[pT]TMLA
modifications: also: phosphothreonine at Thr 305
notes: also called phosphorylated Peptide A; source: bought: Elim Biopharm (lyophilized powder)
B5: Peptide A (peptide)
peptide: LKKFNARRKLKGAILTTMLA
notes: as for B2
B6: Peptide G (peptide)
peptide: RSTVASCMHRQETVDCLKKFNA
notes: also called autonomy site peptide; source: bought: Elim Biopharm (lyophilized powder)
B7: Peptide B (peptide)
peptide: AILTTMLATRNFSGGKSGGNKK
notes: as for B2

How the values were obtained:
[1] = biological target: B3; assay: native MS; hub 120 µM (subunits) mixed with 1 to 100 µM phosphorylated peptide, ~400 mM ammonium acetate, injected at once without incubation; sample cone voltage 50 V; conditions: both partners purified
[2] = biological target: B3; assay: native MS; hub 120 µM (subunits) mixed with 1 µM to 1 mM unphosphorylated peptide, ~400 mM ammonium acetate, incubated 5 min at room temperature; nanoelectrospray, sample cone voltage 50 V, source 80°C; conditions: both partners purified
[3] = biological target: the molecule itself; assay: native MS; hub alone, 120 µM subunit concentration in 400 mM ammonium acetate, 5 min at room temperature; nanoelectrospray, sample cone voltage 50 V, source 80°C

binding result [2]	Binder	other results
–	B1	binding result [1]: binds
binds	B2	–
–	B3	stoichiometry N [3]: 12 and 14
–	B4	binding result [1]: binds
binds	B5	–
binds	B6	–
binds	B7	–
